Series [1] has as its target T1, RB1 double mutant K791A/K824A.
T1 chain: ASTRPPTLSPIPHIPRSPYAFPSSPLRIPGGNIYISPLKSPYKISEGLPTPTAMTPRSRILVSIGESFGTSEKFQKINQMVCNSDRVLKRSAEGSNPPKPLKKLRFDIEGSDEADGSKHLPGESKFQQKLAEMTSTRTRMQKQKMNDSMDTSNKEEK

A further series has as its target T2, RB1 mutant K814A.
T2 chain: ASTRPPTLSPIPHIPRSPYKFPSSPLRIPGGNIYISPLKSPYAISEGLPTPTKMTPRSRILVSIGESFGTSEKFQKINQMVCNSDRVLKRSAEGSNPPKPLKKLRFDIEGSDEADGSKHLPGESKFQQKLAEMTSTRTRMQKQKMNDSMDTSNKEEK

The next series has as its target T3, RB1 mutant K791A.
T3 chain: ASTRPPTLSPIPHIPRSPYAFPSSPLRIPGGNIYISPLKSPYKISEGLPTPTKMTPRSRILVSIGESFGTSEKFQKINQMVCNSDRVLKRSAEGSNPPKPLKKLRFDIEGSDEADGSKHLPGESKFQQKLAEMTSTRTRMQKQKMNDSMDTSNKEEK

Series [2] has as its target T4, RB1 substrate domain mutant K889A.
T4 chain: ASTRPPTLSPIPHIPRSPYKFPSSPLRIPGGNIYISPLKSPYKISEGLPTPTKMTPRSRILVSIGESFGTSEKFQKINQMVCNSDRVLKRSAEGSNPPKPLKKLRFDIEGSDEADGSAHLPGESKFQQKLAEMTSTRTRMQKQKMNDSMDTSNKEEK

For series [3], the target named is T5, RB1 substrate domain mutant K824A.
T5 chain: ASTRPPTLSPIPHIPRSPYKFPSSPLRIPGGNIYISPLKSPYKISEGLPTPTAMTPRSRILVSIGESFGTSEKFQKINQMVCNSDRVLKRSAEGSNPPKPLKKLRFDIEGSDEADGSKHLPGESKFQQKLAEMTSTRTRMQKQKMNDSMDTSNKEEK

Series [4] deals with T6, RB1 double mutant K814A/K824A.
T6 chain: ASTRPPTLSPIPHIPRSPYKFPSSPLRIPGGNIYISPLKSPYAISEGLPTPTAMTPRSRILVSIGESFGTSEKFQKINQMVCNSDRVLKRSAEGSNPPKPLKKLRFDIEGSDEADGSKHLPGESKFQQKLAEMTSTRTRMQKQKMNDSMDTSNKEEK

Series [5] deals with T7, RB1 substrate domain mutant K896A.
T7 chain: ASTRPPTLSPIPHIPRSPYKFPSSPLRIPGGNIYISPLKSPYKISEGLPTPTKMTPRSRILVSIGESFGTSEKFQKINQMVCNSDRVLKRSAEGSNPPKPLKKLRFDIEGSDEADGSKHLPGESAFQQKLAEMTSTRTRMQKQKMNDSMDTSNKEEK

Series [6] deals with T8, Recombinant C-terminal region of RB1 (codons 769-921).
T8 chain: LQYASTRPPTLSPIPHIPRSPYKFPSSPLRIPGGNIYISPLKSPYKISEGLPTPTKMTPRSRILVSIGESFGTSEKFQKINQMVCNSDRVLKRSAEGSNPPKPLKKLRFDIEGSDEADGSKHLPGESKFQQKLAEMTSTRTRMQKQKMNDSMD

In series [7] the target is Recombinant full-length GST-p53 (wild-type p53), P04637.
Sequence of Recombinant full-length GST-p53 (wild-type p53), P04637 (P04637 whole entry, looked up): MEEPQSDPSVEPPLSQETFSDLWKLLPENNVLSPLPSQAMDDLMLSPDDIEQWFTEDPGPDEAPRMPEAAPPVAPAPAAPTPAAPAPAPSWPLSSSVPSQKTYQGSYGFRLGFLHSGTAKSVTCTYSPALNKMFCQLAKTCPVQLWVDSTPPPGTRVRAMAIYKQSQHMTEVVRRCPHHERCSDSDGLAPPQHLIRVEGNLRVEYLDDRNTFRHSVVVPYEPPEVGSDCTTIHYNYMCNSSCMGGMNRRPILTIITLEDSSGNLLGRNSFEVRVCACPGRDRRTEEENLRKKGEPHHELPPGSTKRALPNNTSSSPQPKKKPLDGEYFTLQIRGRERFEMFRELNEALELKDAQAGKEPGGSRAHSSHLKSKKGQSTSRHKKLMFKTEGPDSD
Series [8] concerns the target T9, full-length recombinant RB protein (3108, QED Bioscience).
T9 chain: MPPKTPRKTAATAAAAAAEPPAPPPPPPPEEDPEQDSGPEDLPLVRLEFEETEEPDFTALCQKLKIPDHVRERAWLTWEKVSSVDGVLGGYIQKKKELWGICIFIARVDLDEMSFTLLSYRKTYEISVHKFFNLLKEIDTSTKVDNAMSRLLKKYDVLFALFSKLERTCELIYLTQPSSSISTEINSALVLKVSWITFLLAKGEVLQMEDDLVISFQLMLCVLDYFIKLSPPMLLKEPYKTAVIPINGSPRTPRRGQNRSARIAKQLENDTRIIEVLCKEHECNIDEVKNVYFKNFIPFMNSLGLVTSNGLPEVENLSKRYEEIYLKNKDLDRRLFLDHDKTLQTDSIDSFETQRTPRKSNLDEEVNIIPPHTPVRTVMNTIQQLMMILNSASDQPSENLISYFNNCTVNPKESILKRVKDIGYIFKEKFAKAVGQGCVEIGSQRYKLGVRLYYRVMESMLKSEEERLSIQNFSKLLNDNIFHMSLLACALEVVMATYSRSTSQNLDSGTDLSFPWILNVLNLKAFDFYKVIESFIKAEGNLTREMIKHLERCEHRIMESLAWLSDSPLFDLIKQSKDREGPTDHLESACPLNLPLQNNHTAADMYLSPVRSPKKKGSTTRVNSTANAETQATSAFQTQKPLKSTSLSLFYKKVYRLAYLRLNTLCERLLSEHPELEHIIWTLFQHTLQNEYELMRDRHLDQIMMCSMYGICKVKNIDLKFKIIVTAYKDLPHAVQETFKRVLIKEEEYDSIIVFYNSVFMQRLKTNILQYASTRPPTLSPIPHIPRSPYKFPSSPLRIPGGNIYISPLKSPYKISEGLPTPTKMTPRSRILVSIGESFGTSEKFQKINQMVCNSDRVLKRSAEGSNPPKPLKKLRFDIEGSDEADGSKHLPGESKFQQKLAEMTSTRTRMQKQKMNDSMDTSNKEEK

B1: Recombinant SMYD3 protein (prepared in Sf9 cells, Baculovirus system) (protein)
chain: MEPLKVEKFATANRGNGLRAVTPLRPGELLFRSDPLAYTVCKGSRGVVCDRCLLGKEKLMRCSQCRVAKYCSAKCQKKAWPDHKRECKCLKSCKPRYPPDSVRLLGRVVFKLMDGAPSESEKLYSFYDLESNINKLTEDKKEGLRQLVMTFQHFMREEIQDASQLPPAFDLFEAFAKVICNSFTICNAEMQEVGVGLYPSISLLNHSCDPNCSIVFNGPHLLLRAVRDIEVGEELTICYLDMLMTSEERRKQLRDQYCFECDCFRCQTQDKDADMLTGDEQVWKEVQESLKKIEELKAHWKWEQVLAMCQAIISSNSERLPDINIYQLKVLDCAMDACINLGLLEEALFYGTRTMEPYRIFFPGSHPVRGVQVMKVGKLQLHQGMFPQAMKNLRLAFDIMRVTHGREHSLIEDLILLLEECDANIRAS
As to B1, the “methylation by SMYD3 (fluorogram, liquid scintillation counter)” value in series [1] is “showed equivalent levels of methylation to the K824A protein”; with RB1 mutant K814A, “K791A and K814A, showed similar levels of methylation to wild type-RB1”; with RB1 mutant K791A, “K791A and K814A, showed similar levels of methylation to wild type-RB1”; in series [4], “showed equivalent levels of methylation to the K824A protein”. Also, the “methylation by SMYD3 (autoradiography, liquid scintillation counter)” value in series [2] is “the K889A and K896A mutants were methylated at similar levels by SMYD3”; in [3], “methylation of K824A was significantly decreased”; in series [5], “the K889A and K896A mutants were methylated at similar levels by SMYD3”. In addition, the “methyltransferase (MTase) activity” value in the series with recombinant histone H3 is recorded as “a dose-dependent increase of MTase activity on both substrates”. Moreover, the “incorporation of 3H-labeled methyl donor (liquid scintillation counter)” value in series [6] was “four to six fold higher amount of 3H-labeled methyl donor in the presence of SMYD3 than the absence of SMYD3”.

B2: Flag-tagged wild-type SMYD3 immunoprecipitated from 293T cells (p3XFLAG-CMV-SMYD3) (protein)
chain: MEPLKVEKFATANRGNGLRAVTPLRPGELLFRSDPLAYTVCKGSRGVVCDRCLLGKEKLMRCSQCRVAKYCSAKCQKKAWPDHKRECKCLKSCKPRYPPDSVRLLGRVVFKLMDGAPSESEKLYSFYDLESNINKLTEDKKEGLRQLVMTFQHFMREEIQDASQLPPAFDLFEAFAKVICNSFTICNAEMQEVGVGLYPSISLLNHSCDPNCSIVFNGPHLLLRAVRDIEVGEELTICYLDMLMTSEERRKQLRDQYCFECDCFRCQTQDKDADMLTGDEQVWKEVQESLKKIEELKAHWKWEQVLAMCQAIISSNSERLPDINIYQLKVLDCAMDACINLGLLEEALFYGTRTMEPYRIFFPGSHPVRGVQVMKVGKLQLHQGMFPQAMKNLRLAFDIMRVTHGREHSLIEDLILLLEECDANIRAS
Take B2: the “methylation of substrate (in vitro MTase assay with 3H-labeled SAM, PAGE and autoradiography)” value in [7] is “no bands corresponding to methylated p53 were detected”; in the series with recombinant histone H3, “bands corresponding methylated histone H3”; in [6], “bands corresponding to methylated RB1 were also detected”. Moreover, the “methylation of substrate (in vitro MTase assay)” value in [8] is reported as “SMYD3 methylated full length of RB1”.

Values taken from patent US20090191181.
